One assay concerns the target T1, Cy CD3ε/g.
T1 construct: also called cynomolgus monkey CD3εγ on Ba/F3 cells
T1 epsilon: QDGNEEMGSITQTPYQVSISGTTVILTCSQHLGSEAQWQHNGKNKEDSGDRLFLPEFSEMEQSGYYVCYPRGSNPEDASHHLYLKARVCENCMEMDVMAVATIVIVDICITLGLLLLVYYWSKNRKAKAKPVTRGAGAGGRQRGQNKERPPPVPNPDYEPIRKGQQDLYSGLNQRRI
T1 gamma: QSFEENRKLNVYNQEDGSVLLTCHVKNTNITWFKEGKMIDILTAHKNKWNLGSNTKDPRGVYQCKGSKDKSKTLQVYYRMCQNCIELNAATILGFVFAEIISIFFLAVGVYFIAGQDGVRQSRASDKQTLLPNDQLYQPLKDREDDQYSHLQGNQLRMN
Description: cell-ELISA on Ba/F3 cells expressing cynomolgus monkey CD3εγ, hybridoma culture supernatant (CM). For orientation: ELISA stands for enzyme-linked immunosorbent assay.

For the next assay, the target named is T2, hCD3ε/g.
T2 construct: also called human CD3εγ on Ba/F3 cells
Description: cell-ELISA on Ba/F3 cells expressing human CD3εγ, hybridoma culture supernatant (CM).

For assay [1], the target named is T3, CD3ε homodimer protein (human, UniProt P07766 23-126, limits assumed).
T3 construct: also called human CD3ε homodimer protein; CD3e homodimer
Nature of the assay: SPR (Biacore T200, 25°C); CD3ε homodimer immobilized on CM4, one-arm antibody as analyte; first of two CE115HA340 lines (r6, 2.0E-08); the second line (r8) gives 2.7E-08. Background: SPR reads the build-up and loss of mass on a sensor chip optically.

Assay [2] deals with T3, CD3ε homodimer protein. Nature of the assay: SPR (Biacore T200, 25°C); CD3ε homodimer immobilized on CM4, one-arm antibody as analyte.
The target in assay [3] is T4, human IgA-Fc with AviTag, biotinylated (human, UniProt P01876 123-333, limits assumed, biotinylated at the C-terminal AviTag sequence).
T4 construct: also called hIgA; biotinylated human IgA
Nature of the assay: ECL; hIgA signal without against with CD3ε homodimer protein (competitor).

Assay [4] has as its target T4, human IgA-Fc with AviTag, biotinylated. Nature of the assay: ECL; biotinylated hIgA, ratio to the no-antigen well.
The target of assay [5] is T5, integrin αvβ3 (R&D Systems, Inc.) (human, UniProt P06756 31-992; P05106 27-718). Description: ECL; integrin αvβ3 value without against with CD3ε homodimer protein (competitor).
The target in assay [6] is T5, integrin αvβ3 (R&D Systems, Inc.). Nature of the assay: ECL; integrin αvβ3 on plate, ratio to the integrin-free well.
For assay [7] the target is unchanged. Description: ECL; integrin αvβ3 on plate with CD3ε homodimer protein (competitor), ratio to the integrin-free well.
Assay [8] has as its target T4, human IgA-Fc with AviTag, biotinylated. Description: ECL; biotinylated hIgA with CD3ε homodimer protein (competitor), ratio to the no-antigen well.
Assay [9] shares this target. Description: ECL; biotinylated hIgA, ratio to the no-antigen well. The source holds these as a separate data set.
Assay [10] addresses T6, biotin-labeled CD3ε peptide (also: biotin-labeled, site not given here).
T6 construct: also called CD3 peptide; biotinylated CD3ε peptide
T6 peptide: QDGNEEMGGITQTPY
Nature of the assay: ECL; CD3 peptide as antigen, ratio to the no-antigen well.

The target in assay [11] is T4, human IgA-Fc with AviTag, biotinylated. Description: ECL; biotinylated hIgA with integrin αvβ3 (competitor), ratio to the no-antigen well.
Assay [12] shares this target. Description: ECL; hIgA value without against with integrin αvβ3 (competitor).

Ends that are not written are not given here.

B1: CE#115 (antibody, V domains shown)
VH: EVQLVETGGSLVQPGKSLKLTCATSGFTFSNAWMHWVRQSPEKQLEWVAQIKAKSNNYATYYAESVKGRFTISRDDSKSNIYLQMNSLKEEDTAVYYCRYVHYGAYYGVDAWGQGTSVTVSS
VL: DVVMTQTPVSMSVSLGGQVSISCRSSQSLVHNNGNTYVSWYIQKPSQSPQLLIYKVSNRFSGISDRFSGSGSGTDFTLKISRVEPDDLGVYYCGQGTQDPYTFGAGTKLELK
notes: also called CE115, rat hybridoma culture supernatant
Take B1: the binding result with Cy CD3ε/g and with hCD3ε/g was “binds” each time.

B2: CE115HA340 / GLS3000 one-arm antibody (antibody, human IgG1, kappa, L234A L235A, N297A)
heavy: QVQLVESGGGLVQPGRSLRLSCAASGFTFSNAWMHWVRQAPGKGLEWVAQIKDKSNNYATYYAESVKGRFTISRDDSKNSIYLQMNSLKTEDTAVYYCRYVHYAAYYGVDAWGQGTTVTVSSASTKGPSVFPLAPSSKSTSGGTAALGCLVKDYFPEPVTVSWNSGALTSGVHTFPAVLQSSGLYSLSSVVTVPSSSLGTQTYICNVNHKPSNTKVDKKVEPKSCDKTHTCPPCPAPEAAGGPSVFLFPPKPKDTLMISRTPEVTCVVVDVSHEDPEVKFNWYVDGVEVHNAKTKPREEQYASTYRVVSVLTVLHQDWLNGKEYKCKVSNKALPAPIEKTISKAKGQPREPQVYTLPPSRCELTKNQVSLSCAVKGFYPSDIAVEWESNGQPENNYKTTPPVLDSDGSFFLVSKLTVDKSRWQQGNVFSCSVMHEALHNHYTQKSLSLSPDYKDDDDK
chain: EPKSSDKTHTCPPCPAPELLGGPSVFLFPPKPKDTLMISRTPEVTCVVVDVSHEDPEVKFNWYVDGVEVHNAKTKPREEQYNSTYRVVSVLTVLHQDWLNGKEYKCKVSNKALPAPIEKTISKAKGQPREPQVCTLPPSRDELTKNQVSLWCLVKGFYPSDIAVEWESNGQPENNYKTTPPVLDSDGSFFLYSKLTVDKSRWQQGNVFSCSVMHEALHNRYTQKSLSLSP
light: DIVMTQSPLSLPVTPGEPASISCRSSQSLVHSNRNTYLHWYQQKPGQAPRLLIYKVSNRFSGVPDRFSGSGSGTDFTLKISRVEAEDVGVYYCGQGTQVPYTFGQGTKLEIKRTVAAPSVFIFPPSDEQLKSGTASVVCLLNNFYPREAKVQWKVDNALQSGNSQESVTEQDSKDSTYSLSSTLTLSKADYEKHKVYACEVTHQGLSSPVTKSFNRGEC
notes: one-arm antibody
For orientation: Kd means the equilibrium constant for the complex coming apart. Regarding B2, the Kd in the assay with CD3ε homodimer protein [1] came out at 20 nM; in the assay with CD3ε homodimer protein [2], 27 nM.

B3: IGAR6(2)B02H1 (antibody, human IgG1, kappa, L234A L235A, N297A)
heavy: QVQLVESGGGLVQPGRSLRLSCAASGFTFSNAWMHWVRQAPGKGLEWVAQIKDKGQQYAAYYAPSVKGRFTISRDGCRGDCLDSKNSIYLQMNSLKTEDTAVYYCRYVHYQTYSDGSFYFGVDAWGQGTTVTVSSASTKGPSVFPLAPSSKSTSGGTAALGCLVKDYFPEPVTVSWNSGALTSGVHTFPAVLQSSGLYSLSSVVTVPSSSLGTQTYICNVNHKPSNTKVDKKVEPKSCDKTHTCPPCPAPEAAGGPSVFLFPPKPKDTLMISRTPEVTCVVVDVSHEDPEVKFNWYVDGVEVHNAKTKPREEQYASTYRVVSVLTVLHQDWLNGKEYKCKVSNKALPAPIEKTISKAKGQPREPQVYTLPPSRCELTKNQVSLSCAVKGFYPSDIAVEWESNGQPENNYKTTPPVLDSDGSFFLVSKLTVDKSRWQQGNVFSCSVMHEALHNHYTQKSLSLSPDYKDDDDK
chain: B2 chain
light: B2 light
notes: One-arm antibody
On to B3, for which, in assay [3], the “Amount of binding to hIgA attenuated by CD3” value amounted to 7.4 fold. The “Value as compared with antigen-free well” value is 8 fold in assay [4]; 1 fold in assay [8]; 3.9 fold in [9]; 1410 fold in assay [10]; 1.6 fold in assay [11]. In addition, in assay [5], the “Amount of binding to integrin αvβ3 attenuated by CD3” value is 2.4 fold. The “Value as compared with integrin αvβ3-free well” value in assay [6] stood at 438 fold; in [7], 185 fold. Moreover, in assay [12], the “Amount of binding to hIgA attenuated by integrin αvβ3” value came out at 2.5 fold.

The values are drawn from patent US20220040297A1 (Chugai, published 2022).
